Experimental data published in publication PMC2994917 (The Journal of neuroscience : the official journal of the …, 2010).

Assays:
[1] = target: NSF T461E mutant (Chinese hamster, UniProt P18708 1-744, T461E); assay: far-Western, overlay or dot blot
[2] = target: NSF S460E mutant (Chinese hamster, UniProt P18708 1-744, S460E); assay: far-Western, overlay or dot blot
NSF S460E mutant, sequence (P18708 whole entry S460E): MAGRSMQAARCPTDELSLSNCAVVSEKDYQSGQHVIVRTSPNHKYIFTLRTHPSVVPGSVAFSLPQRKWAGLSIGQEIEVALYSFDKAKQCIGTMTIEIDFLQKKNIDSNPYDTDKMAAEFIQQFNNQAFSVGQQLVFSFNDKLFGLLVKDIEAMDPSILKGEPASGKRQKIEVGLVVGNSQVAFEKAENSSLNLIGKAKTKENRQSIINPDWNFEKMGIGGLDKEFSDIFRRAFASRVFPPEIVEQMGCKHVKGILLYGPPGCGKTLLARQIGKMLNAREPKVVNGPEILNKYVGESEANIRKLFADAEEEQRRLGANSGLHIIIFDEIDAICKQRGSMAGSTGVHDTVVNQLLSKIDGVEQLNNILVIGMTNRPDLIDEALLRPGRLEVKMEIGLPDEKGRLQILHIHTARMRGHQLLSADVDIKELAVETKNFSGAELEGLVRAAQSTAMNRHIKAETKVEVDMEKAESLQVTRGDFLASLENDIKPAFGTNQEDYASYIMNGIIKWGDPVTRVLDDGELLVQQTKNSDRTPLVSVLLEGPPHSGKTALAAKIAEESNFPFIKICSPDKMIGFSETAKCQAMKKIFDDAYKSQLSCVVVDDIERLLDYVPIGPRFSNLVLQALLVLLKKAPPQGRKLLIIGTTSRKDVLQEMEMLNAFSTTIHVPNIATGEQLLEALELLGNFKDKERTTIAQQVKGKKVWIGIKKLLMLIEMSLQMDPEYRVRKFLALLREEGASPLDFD

NSF T461E mutant, sequence (P18708 whole entry T461E): as the sequence (P18708 whole entry S460E) above, with E460S, T461E counted along it

B1: human recombinant PKCε (Invitrogen) (enzyme, UniProt Q02156 1-737, looked up)
chain: MVVFNGLLKIKICEAVSLKPTAWSLRHAVGPRPQTFLLDPYIALNVDDSRIGQTATKQKTNSPAWHDEFVTDVCNGRKIELAVFHDAPIGYDDFVANCTIQFEELLQNGSRHFEDWIDLEPEGRVYVIIDLSGSSGEAPKDNEERVFRERMRPRKRQGAVRRRVHQVNGHKFMATYLRQPTYCSHCRDFIWGVIGKQGYQCQVCTCVVHKRCHELIITKCAGLKKQETPDQVGSQRFSVNMPHKFGIHNYKVPTFCDHCGSLLWGLLRQGLQCKVCKMNVHRRCETNVAPNCGVDARGIAKVLADLGVTPDKITNSGQRRKKLIAGAESPQPASGSSPSEEDRSKSAPTSPCDQEIKELENNIRKALSFDNRGEEHRAASSPDGQLMSPGENGEVRQGQAKRLGLDEFNFIKVLGKGSFGKVMLAELKGKDEVYAVKVLKKDVILQDDDVDCTMTEKRILALARKHPYLTQLYCCFQTKDRLFFVMEYVNGGDLMFQIQRSRKFDEPRSRFYAAEVTSALMFLHQHGVIYRDLKLDNILLDAEGHCKLADFGMCKEGILNGVTTTTFCGTPDYIAPEILQELEYGPSVDWWALGVLMYEMMAGQPPFEADNEDDLFESILHDDVLYPVWLSKEAVSILKAFMTKNPHKRLGCVASQNGEDAIKQHPFFKEIDWVLLEQKKIKPPFKPRIKTKRDVNNFDQDFTREEPVLTLVDEAIVKQINQEEFKGFSYFGEDLMP
binding result [1]: binds
binding result [2]: binds
